Source: patent US20090297689A1

What was measured:
[1] = biological target: sodium caseinate; test: cell-based or functional assay
[2] = biological target: casein hydrolysate; test: cell-based or functional assay

peptidyl arginine deiminase (PAD) of Fusarium graminearum CBS166.57, over-expressed in Aspergillus niger and purified (enzyme)
arginine (amino acid analysis, 5 microliter PAD, 3 hours) [1]: 97.8%
arginine (amino acid analysis, 50 microliter PAD, 3 hours) [1]: 86.5%
arginine (amino acid analysis, 500 microliter PAD, 3 hours) [1]: 70.2%
citrulline (amino acid analysis, 5 microliter PAD, 3 hours) [1]: 0.8%
citrulline (amino acid analysis, 50 microliter PAD, 3 hours) [1]: 4.7%
citrulline (amino acid analysis, 500 microliter PAD, 3 hours) [1]: 10.5%
ornithine (amino acid analysis, 5 microliter PAD, 3 hours) [1]: 1.3%
ornithine (amino acid analysis, 50 microliter PAD, 3 hours) [1]: 8.8%
ornithine (amino acid analysis, 500 microliter PAD, 3 hours) [1]: 19.3%
arginine (amino acid analysis, 5 microliter PAD, 3 hours) [2]: 97.2%
arginine (amino acid analysis, 50 microliter PAD, 3 hours) [2]: 86.1%
arginine (amino acid analysis, 500 microliter PAD, 3 hours) [2]: 60.4%
citrulline (amino acid analysis, 5 microliter PAD, 3 hours) [2]: 0.9%
citrulline (amino acid analysis, 50 microliter PAD, 3 hours) [2]: 5%
citrulline (amino acid analysis, 500 microliter PAD, 3 hours) [2]: 15.1%
ornithine (amino acid analysis, 5 microliter PAD, 3 hours) [2]: 1.9%
ornithine (amino acid analysis, 50 microliter PAD, 3 hours) [2]: 8.9%
ornithine (amino acid analysis, 500 microliter PAD, 3 hours) [2]: 24.5%
